Results published in patent publication US6660837.

Experiments:
[1] = molecular target: [γ-32P]GTP·GST-RhoA (human) (UniProt P61586); assay: cell-based or functional assay
[2] = system: [Ser^46] PKN (39-53) peptide

[γ-32P]GTP·GST-RhoA (human), sequence (P61586 whole entry): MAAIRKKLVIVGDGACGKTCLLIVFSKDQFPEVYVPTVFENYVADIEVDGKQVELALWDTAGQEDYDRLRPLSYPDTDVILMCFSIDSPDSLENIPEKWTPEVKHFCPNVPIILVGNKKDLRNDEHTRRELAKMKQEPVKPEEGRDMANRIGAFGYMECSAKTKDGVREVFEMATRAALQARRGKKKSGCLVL

half life of GTP bound to RhoA (endogenous GTPase activity) [1] [min] | Substance | Km (phosphorylation of the peptide by PKN) [2]
> 15 | GST-PKN (N-terminal region of human PKN, amino acid sequence 1-538, fused to GST) (from UniProt Q16512 1-538) | 
 | PKN purified from rat testis cytosol | a Km of approximately 25 µM
